# Assay: soluble on expression in E. coli; label from the status in PepcDB or PDB records
row,Sequence,soluble on expression in E. coli
1,MSLDLISFSVPGNLLLMGEYTILEEKGLGLAIAINKRAFFSFKKSDSWRFFSKKKKIDDFSLIENRSDFVFKMFAYLSQNCFFNLENFAYDVYIDTSNFFFNDGTKKGFGSSAVVAIGIVCGLFLIHNATNVVEKGEIFKYCLEAYRYSQGGIGSGYDIATSIFGGVIEFEGGFNPKCRQLGAVEFNDFYLMQGLQAIKTTTSICEYNKHRNSILDFILKCNLEMKKLVLNASNSKSALISSLRRAKELGLAIGEAIGVSAALPSSFDHLLGQCDLIKALGAGNETFLVYRPNIEAFNLSKIISIVLENEGIKFESDKEGHHHHHH,not soluble
2,MSLDNKNKSEVQAQETVQVSYKEKNRESSLASALDVLSRFGGFNFLESTVDGVQNLNPERKARKKIFLTDEQKQEEREVLKNKIDMWIDLLNSSSAVTEMIATSKAKSEAAASHLAKSQLVAVQSVRDMEQAYRGVMLFYKNTEADKVNNVTIVNASKEQLTDLDNPRFIDFVARELKQNYDKLDLRQNYSLLAIPGYLGSNKVLEKWAKIAYENKVMLYTDFADLDKPEDVVELFSSSNMASGEAFKSNTCMTCNWLVGRAGYREIGEEEDLHVSPSIALMGKVYTTLMSQVTAGKKYGGINEIDAVVFPLKKSEISQLEKMGLIPMVNEYGKVMAFSAKTLFNGDNLGLQTYSVVRVFDYITKVLFDFLNRRSFENWSSKTERDLRGQIVQYLDSVQGADRLIEKFKIIRFEQDQKQKDRIYLDIHMTPFFPAKSFVIKLDGTKGDDGTNWNTNYEEGHHHHHH,not soluble
3,MSLDPDAGVIFARTAAGAAVALGLLKCGRIWLCPVCSGQDPARPSEEITEAVVSWLQQGGWAYLVTFTARHTAADRLSDLMDALQGTRADAETGTKRRPGAYQRLITGAAWAGDKRRKSNQEGIRGRIGYIGMIRATEVTVGEGAGWHPHIHAIVLVGGRTEGQRGDKRITGTFTPSEDALTEWEDRWRRSGPATLARSTPGFRPPTGARSPGATAGARATASTSSSSVRSGRQRPGRVHRQDAGRQEPGPGAGTRRPQGRPPGQHDVLRTPSRIGDLMGGVPEEEAAGHGSLAWGLDRWAEYETAVSGAGHRVDPLPAPAPGPDRRRHRGRRHGRPVPDRAARRFRDGVQIWDRAWKGLVGRSLDLAVVEAVEGREISMDALGELVQSAGQSRAFLRVLTPQEVTELYDELLRTLARRREQAAERRAAEAAEAEPTTREGHHHHHH,not soluble
4,MSLDPHAPLAERLRPRTLDDVVGQSHLLGPGKPLRLAFDSGKLHSMILWGPPGVGKTTLARLTAQAFGADFIAISAVLSGVKDIREAVERARMNQKLGRATILFVDEVHRFNKSQQDAFLPHVESGLFTFIGATTENPSFEVVGALLSRAQVYVLKSLTPDELGRLMQRALQELPSLKLADGVDKLLAAYADGDARKLLNLLEQLDTAARTAQVEEADAAFVENALAQSLRRFDKGGEAFYDQISALHKSVRGSDPDASLYWLVRMLDGGADPRYLGRRLVRMASEDIGMADPRALRLALDAVETYERLGSPEGELALAEACLYLACAPKSNAAYVAYNAARAFVEANPSNDVPIHLRNAPTKLMKELGYGRAYRYAHDEPEAYAAGERYFPDDIAEQQFYEPTPRGLEGKIAEKLAHLRELDDEAEKEGHHHHHH,soluble
5,MSLDRELKNLHLNISQLAALSGAHRQTVAARVKNISPAGGHESNLKLYRLTDILAELMKAPLPVDNEEMDPHARKAWYQSERDRLKFEQETGQLVPVSDVRRSFSVVVKAIVQVLETWPDRLERDRGWTASQLNEVQIVVDEIRDTLEKAVIDCCDEADEGHHHHHH,soluble
6,MSLDSIKVKNEYEKLTGSDSVVRRGMFNVYQKKNDYYFEIPSTLLERDMLVVNKLQRVPAELNEAGVNRGTNYENQMIRFELDKSANKLLIRQSRPLPISPSEDAISQSVKDNYISPLIAGFKVEAYNNDSTSILIKVNDIYDGTETSINNVFTNINLGTSAIKNLSRILSIKSFDNNVVATSELTTRVTEGTTTIYVTVEVSSSILLLPEVPMTGRLDNPRVGYFTNPLTNFSDGQQRVNKKQFITRWRLEPRPEDRAAYLRGELVEPRKPIVFYIENSTPYRWRKYIKQGIEDWQVAFERAGFKNAIIAKDITEDMEVDMDDVNYSVLTYAASTKANAMGPSILDPRSGEILEADIMWWHNVLSMLQEWITVQTGVVRPEARGVALPDSLMGDAMRFVACHEVGHSLGLRHNMMGSWAFPTDSLRSKTFTDRMNSTSSSIMDYARFNYVAQPGDGIKALSPHIGPYDMFAIEYGYRWYGKQTPEEEKELLQDFLAKHTDRLYKYSEAQDPRDAVDPRAQNEDLGDDPIRSSQYGIANLKCIVPQIIQWTTTGEKGQTYEEASRLYYAVINQWNNYLYHVMANIGGIYIENTTVGDGEKTYTFVEKEKQQAALRFLLDEVLCYPKWLFDPEIAQYTYLLKNTPLGVVENAPTQVLKNAQAYVFWDLLSNNRLMRMLENESVNGKKAFTAVELMDGLHKSIFAVTERGGLPDVMTRNLQKGFVDALITAAAESEGVKVNKKLIDNHFLFDLQTPICSCDDHVHRSAHTDRMGARRELNFYGSQINRISDAISVKRGELLRIKDLLQSRLGTSDVATKYHYKDLILRINTALGISKEGHHHHHH,soluble
7,MSLDSIVNAYEESDVLDPRTDAERPSVPPVIKPVDLGPVHVETPVVLSPMAGVTNWPFRVICESYGPDGLYVAEMITARALVARNPKALRLCRFAPSEKIRSLQLYGVNPSIVEQAAKIVIDENMADHVDLNFGCPVPKVTRRGGGSALPWKTDLFREIIQRVVKVCDAANVPVTAKIRVGIDHEHETFLEAGHIAQEEGCKAVTLHARTTAEYYGGHSDWSRIGELVSELDIPVFGNGDIWGANDALAMVAETGCAGVAIGRGCQGRPWLFADIKNAFAGSDERVDPTLGDVCRVIERHAELLTEFYDEGHHHHHH,not soluble
8,MSLDVSEGGVTVSVPTASGGGEGAADDVFFNATQELNRDLTVATLAAFREREPRAASYLDAMTASGIRGVRAANAGWDVTMADVDADAVELATSNLARNGLDGEVVARDANSLLHDHDRVLDVVDIDPFGSPMPFADAAFANARNLVCVTATDTAPLCGAHFESGVRKYSATPRNTNYHAEMGLRILLGALARTAARYDVGVTPILSHVSDHYVRTYLELDHRATDANAAVEQVGHVYHCQQCLSRDHEYGLVAAPRAECPRCGGHQVLTAGPLWLGPAHEEAFAASVREQLTREMGEASQAFHLLQTIEGELHEPTHYDQHRLYSQWGEPAVGMAEFLDQLRDAGLRASRTHFGGTTFKTDGGLAEVEAAVLEGHHHHHH,not soluble
9,MSLDVTNRIERALTEALNQADMAGCPPRLAAAMRSAVFPRGARVRPRLCHSVALACGEDNPGITEAAGAALELMHCASLIHDDLPCFDGADLRRGRPSVHKAFGEPLAVLAGDAMIVLAFQTIARAEGQADRLLKLTQIIGGAVGVPFGIVAGQAWECETEINLAHYHRSKTGALFVAATAMGAASAGSDPEPWRMVGEKIGEAYQVADDLRDAAADVEEIGKPVGQDVAHDRPSAVREMGIDGAIYHLKSLVRGAVEAMPECTNGNELRSLIMSEATRLVPAEGHHHHHH,soluble
10,MSLDWQTLLTRERLGKPVHSNDELGRSAFHKDHDRIIFSGAFRRLGRKTQVHPVSSNDHIHTRLTHSLEVACVGRSLGMRVGEILREELPEWCDPSDLGVIVQSACLAHDIGNPPFGHSGEDAIRNWFQQAAGRGWLDEMSDAERSDFLHFEGNAQGFRVLTQLEYHQFDGGTRLTYATLGTYLKYPWTSRHAEALGYKKHKFGCYQSELPLLEQITHKLGMPQLDDERWARHPLVYLMEAADDICYGLIDLEDGLEMELLEYSEVEALLLGLVGDDLPDTYRQLGPRDSRRRKLAILRGKAIEHLTNAAARAFVDQQQALLAGQLAGDLVEHMHGPAKLCVQRAKAIAREKIFQDKRKTLHEIGAYTTLEILLNAFCGAALEQYGGHTPSFKNRRILDLLGRNAPDPQWPLYRAFLQVIDFIAGMTDSYATEMAREMTGRSSEGHHHHHH,soluble
11,MSLDYEIFNPYEGLIFDMDGTLIDTMPVHAQAWTMVGKKFGYEFDFQIMYNFGGATVRTIAGEMMKAANMPLDRIEDVLAAKRELSYQLIPTQSKLLPTFEIVKSFHQKKPIALGSGSHRKIIDMLMDKLAIAPYFNAIVSADDVKEHKPHPETFLRCAELIQANPSRCIVFEDADLGVQAGLSAGMDVFDVRTREIISPREGHHHHHH,soluble
12,MSLDYNNITEALQAFRTEKAYRHAPLRSCFFDMDGVLFDSMPAHARSWVEAAGECGIAAEPLDFYRWEGQKGSDTIKILFERGYGRLPTEKEIADMYGRKSQLFALYNSGNVIDDAPALVSDVCDRGLRIMLVTGSSQTDILQRLQRSYGDNFSPANMVTGADVHRGKPHPEPYLKALECVGMSPSEAFVVENAPLGVRAAVDAGIFTIAVNTGCLPDADLWDAGASLVLPSMAVLRSLLGELLTESLSSSAEGHHHHHH,soluble
13,MSLEAKEVYFEQRGDIGYIVINNAPENMITLSLLEEFSNIVENSIINSKIKGIIITGKGRHFSSGTDIGKLKQTILKTAYIKENNSLVECSEFKRYIDALSSLYSINIPVISAINGLCIGSGFEIALHSHIRICSKGSIVGSPESTFGLMPGLGGISRYVQLCGLGKALELVLSGDLLSVNEALEIGIIDKIVKKNEISDYCNRLMEYILKNEMIYSKSKINSYIKLCDEGHHHHHH,soluble
14,MSLEALGVAVVGFGWMGRVHTQAYARVRHHYPHLALRPELVTVAEEVPGRAEEAAAQFGFASTTRDWREVAADPRVHAVSITAPNFLHREIAVAMAGAGKHIWVEKPVGLSSDDARAVADAVSGAGVQGAVGFNYRNAPAVETARRLIAAGEIGTVTHARLRFFSDYAAHPEGALTWRYERERGGSGVLGDLASHGADLARFLLGDIASLTADTAVFVPERARPASATAGHARATGGEPGPVENEDYVSCLLRFASGARGVLEACRVSVGEQNNYGFEVHGTTGAVFWDFRRMNELRVSRGTEYQDQPVSTVYVGPGDGEFAAFQPGAANAMGYDDLKVVEAHRFLRSIAEGTPYGATLSDAVHSAAVLEAMSRSAERGTWVSPGEGHHHHHH,soluble
15,MSLEEQLYKRDPVSGAILVPMTVNDQPIEKNGDKMPLKFKLGPLSYQNMAFITAKDKYKLYPVRIPRLDTSKEFSAYVSGLFEIYRDLGDDRVFNVPTIGVVNSNFAKEHNATVNLAMEAILNELEVFIGRVKDQDGRVNRFYELEESLTVLNCLRTMYFILDGQDVEENRSEFIESLLNWINRSDGEPDEEYIEQVFSVKDSTAGKKVFETQYFWKLLNQLVLRGLLSQAIGCIERSDLLPYLSDTCAVSFDAVSDSIELLKQYPKDSSSTFREWKNLVLKLSQAFGSSATDISGELRDYIEDFLLVIGGNQRKILQYSRTWYESFCGFLLYYIPSLELSAEYLQMSLEANVVDITNDWEQPCVDIISGKIHSILPVMESLDSCTAAFTAMICEAKGLIENIFEGEKNSDDYSNEDNEMLEDLFSYRNGMASYMLNSFAFELCSLGDKELWPVAIGLIALSATGTRSAKKMVIAELLPHYPFVTNDDIEWMLSICVEWRLPEIAKEIYTTLGNQMLSAHNIIESIANFSRAGKYELVKSYSWLLFEASCMEGQKLDDPVLNAIVSKNSPAEDDVIIPQDILDCVVTNSMRQTLAPYAVLSQFYELRDREDWGQALRLLLLLIEFPYLPKHYLVLLVAKFLYPIFLLDDKKLMDEDSVATVIEVIETKWDDADEKSSNLYETIIEADKSEGHHHHHH,not soluble

# — the DeepSol protein solubility set
